According to patent US20060019335A1, “Compositions and methods to promote c-IAP autodegradation” (priority 2004, published 2006):

B1: Smac: wild type (WT) Smac polypeptide from Homo sapiens, SEQ ID NO 1, 239 amino acids; second mitochondria-derived activator of caspase (protein, listed as Homo sapiens)
chain: MAALKSWLSRSVTSFFRYRQCLCVPVVANFKKRCFSELIRPWHKTVTIGFGVTLCAVPIAQKSEPHSLSSEALMRRAVSLVTDSTSTFLSQTTYALIEAITEYTKAVYTLTSLYRQYTSLLGKMNSEEEDEVWQVIIGARAEMTSKHQEYLKLETTWMTAVGLSEMAAEAAYQTGADQASITARNHIQLVKLQVEEVHQLSRKAETKLAEAQIEELRQKTQEEGEERAESEQEAYLRED
B2: Smac ΔA: Smac mutant lacking the initial Ala (Ala deletion mutant polypeptide), used as negative control (protein, UniProt Q9NR28 22-239, looked up, variant A1*)
Diablo IAP-binding …: LCVPVVANFKKRCFSELIRPWHKTVTIGFGVTLCVPIAQKSEPHSLSSEALMRRAVSLVTDSTSTFLSQTTYALIEAITEYTKAVYTLTSLYRQYTSLLGKMNSEEEDEVWQVIIGARAEMTSKHQEYLKLETTWMTAVGLSEMAAEAAYQTGADQASITARNHIQLVKLQVEEVHQLSRKAETKLAEAQIEELRQKTQEEGEERAESEQEAYLRED

What was measured:
[1] = molecular target: T1, c-IAP2 (Homo sapiens, UniProt Q13489); assay: Co-transfection of HeLa cells with c-IAP2 and Smac plasmids, Western blot; type: cell-based; settings: for ubiquitylation and degradation (E3 activity) of c-IAP2: co-transfection, FIG. 2B
T1 construct: produced not only the expected full length c-IAP1 or c-IAP2; expressed in transfected cells; host or cells: HeLa
T1 sequence (Q13489 whole entry): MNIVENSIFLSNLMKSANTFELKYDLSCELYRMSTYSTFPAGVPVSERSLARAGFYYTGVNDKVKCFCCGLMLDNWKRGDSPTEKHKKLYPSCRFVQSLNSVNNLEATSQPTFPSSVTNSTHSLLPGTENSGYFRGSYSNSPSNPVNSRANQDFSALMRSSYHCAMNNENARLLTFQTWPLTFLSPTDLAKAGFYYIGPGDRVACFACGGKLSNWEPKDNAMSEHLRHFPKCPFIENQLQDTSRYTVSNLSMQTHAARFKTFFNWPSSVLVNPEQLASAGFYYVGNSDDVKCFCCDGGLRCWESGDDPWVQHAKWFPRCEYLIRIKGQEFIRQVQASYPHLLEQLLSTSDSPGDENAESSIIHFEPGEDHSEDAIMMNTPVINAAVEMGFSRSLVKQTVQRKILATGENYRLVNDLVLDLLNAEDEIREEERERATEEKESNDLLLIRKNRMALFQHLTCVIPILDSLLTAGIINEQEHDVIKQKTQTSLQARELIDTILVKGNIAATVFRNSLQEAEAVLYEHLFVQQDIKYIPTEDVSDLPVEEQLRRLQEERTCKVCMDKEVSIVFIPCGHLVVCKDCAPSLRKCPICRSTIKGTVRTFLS
Description: Transfection of cultured Cells—HeLa cells were grown in DMEM supplemented with 10% fetal bovine serum. Cells were seeded onto 6-well plates the day before transfection and transfected at 70% confluence by using Lipofectin combined with Plus reagent (Invitrogen) according to the manufacture's protocols. The IAP expression plasmids (3 μg each for c-IAP1, c-IAP2 and XIAP, and 250 ng each for Livin αand Livin β) together with 2.5 μg of Smac expression plasmids or pcDNA3.1(−) blank plasmid were used for single-well transfection in the absence of antibiotics. The cells were harvested 12 hours after the transfection and lysed with 0.5% CHAPS in 20 mM HEPES (pH 7.4), 10 mM KCl, 1 mM MgCl2 and 1 mM DTT. The lysates were centrifuged and the protein concentrations of the supernatants were quantified by the modified Bradford method (36).
Western Blot analysis—Proteins were resolved by SDS-PAGE and transferred to nitrocellulose filters. The filters were blocked with 5% milk and probed with antibodies as indicated. The signals were visualized with the enhanced chemiluminescence method.
To investigate the effect of Smac polypeptide on IAP protein levels, HeLa cells were transfected with the expression vectors for Smac and various IAPs. Briefly, HeLa cells were either transfected with IAP alone (Lane 2, 4 and 6), or together with Smac polypeptide (Lane 3, 5 and 7), or with Smac polypeptide alone (Lane 1). Equal amounts of cell lysates (7 μg) were immunoblotted with either the HRP-conjugated anti-FLAG antibody (shown in the top panel) in order to detect N-terminal 3×FLAG tagged IAPs, or with the anti-c-Myc antibody (bottom panel) to detect C-terminal c-Myc tagged Smac. The ubiquitin fusion technique was used to secure the production of mature Smac protein with the expected N-terminal AVPI motif (6, 37).
Because it is known that the His^588 residue in the RING finger domain is important for the IAP E3 activity (22), this residue was mutated to test whether Smac stimulated the ubiquitylation-mediated degradation of both c-IAP1 and c-IAP2. In each case, His^588 in c-IAP1 and His^574 in c-IAP2 was mutated to Ala (H588A mutant and H574A mutant, respectively) and the results are depicted in FIGS. 2A and 2B. The c-IAP1 WT or H588A mutant plasmids together with either Smac WT or Smac ΔA mutant, or with pcDNA3.1 (−) blank plasmid were co-transfected into HeLa cells (FIG. 2A). The c-IAP2 WT or H574A mutant plasmids together with either Smac WT or Smac ΔA mutant, or with pcDNA3.1 (−) blank plasmid were co-transfected into HeLa cells (FIG. 2B). As controls, HeLa cells were also transfected with either Smac WT or ΔA plasmids together with the blank p3×FLAG-CMV-7 plasmid. The transfected cells were cultivated either in the absence (see lanes 1-7 of FIGS. 2A and 2B) or in the presence (see lanes 8-14 of FIGS. 2A and 2B) of MG132. Equal amounts of soluble proteins (7 μg) from the transfected cells were immunoblotted with either the HRP-conjugated anti-FLAG antibody (see top panel of FIGS. 2A and 2B) to detect N-terminal 3×FLAG tagged IAPs, or with the anti-c-Myc antibody (see middle panel of FIGS. 2A and 2B) to detect C-terminal c-Myc tagged Smac. The anti-Actin immunoblotting results were to show equal protein loading (see bottom panel of FIGS. 2A and 2B).

[2] = system: c-IAP1; assay: In vitro ubiquitylation assay of purified c-IAP1 and BIR deletion mutants; type: biochemical, human; settings: for c-IAP1 auto-ubiquitylation in vitro: full length c-IAP1, UbCH6 as E2, FIG. 7A
Description: In vitro ubiquitylation assays—In vitro ubiquitylation assays were carried out as previously described (29). IAP proteins (200 nM) were incubated with or without Smac polypeptide for 2 hours at 30° C. in a reaction system containing 50 mM Tris-HCl (pH 7.5), 50 mM NaCl, 2 mM Mg-ATP, 20 μM mammalian ubiquitin, 100 nM rabbit ubiquitin-activating enzyme (E1) and 400 nM of recombinant human ubiquitin-conjugating enzymes (E2). The reactions were stopped by adding equal volumes of 2×SDS sample loading buffer followed by Western Blot analysis.
To determine whether Smac promotes auto-ubiquitylation of XIAP, purified XIAP (without tag) was incubated for 2 hours at 30° C. either with or without different concentrations of Smac or with Smac ΔA in the reconstituted ubiquitylation reaction system (Ub Mix) consisting of 50 mM Tris-HCl (pH 7.5), 50 mM NaCl, 2 mM Mg-ATP, 20 μM mammalian ubiquitin, 100 nM rabbit ubiquitin-activating enzyme (E1) and 400 nM UbCH6 (E2). The reactions were stopped by adding equal volumes of 2×SDS sample loading buffer and the products were subjected to SDS-PAGE followed by immunoblotting with anti-XIAP antibody. The purified XIAP was active in directing poly-ubiquitylation. But the auto-ubiquitylation of XIAP was not enhanced by Smac.
Smac ΔA and the peptide Smac-7M were used as negative controls. The reactions were stopped by adding equal volumes of 2×SDS sample loading buffer and the products were subjected to SDS-PAGE followed by immunoblotting with anti-c-IAP1 antibody. The arrows indicate the unmodified full length or deleted c-IAP1.
To verify this, stepwise deletion was performed of the first BIR (ΔBIR1, residues 1-161), the first two BIRs (ΔBIR1-2, residues 1-265), or all the three BIR domains (ΔBIR1-2-3, residues 1-339) from c-IAP1. All these mutants and the full-length wild type c-IAP1 were purified as a non-tagged form by using the pTYB11 Intein system (New England Biolabs).

[3] = system: IAP proteins (GST fusion form); assay: GST pull-down of purified IAP proteins with Smac, silver staining; type: binding, human; settings: equimolar concentrations, 2 hours at 4° C., FIG. 4
Description: The ability of various IAP proteins to bind Smac WT polypeptide and Smac ΔA mutant polypeptide was also examined. The results are depicted in FIG. 4. Briefly, purified IAP proteins (GST fusion form; as indicated in FIG. 4) were incubated with equimolar concentrations of either Smac or Smac ΔA in a buffer containing 20 mM phosphate (pH 7.4), 200 mM NaCl and 0.05% Tween 20 for 2 hours at 4° C. The GST-fused IAP proteins were pulled down by Glutathione Sepharose beads. The resulting […] were subjected to SDS-PAGE followed by silver staining. Lane M of FIG. 4 is the protein marker. […] The reason for this IBM-independent acceleration on XIAP and Livin ubiquitylation is unknown.

[4] = listed as Smac mutant lacking the initial Ala residue

Row | Molecule | level of c-IAP2 ([1]; co-expression, absence of MG132, FIG. 2B) | ubiquitylation and degradation (E3 activity) of c-IAP2 [1] | protein level of c-IAP2 ([1]; mature Smac co-expressed, FIG. 1) | auto-ubiquitylation activity of c-IAP1 ΔBIR1-2-3 ([2]; all three BIR domains deleted (residues 1-339), FIG. 7A) | auto-ubiquitylation activity of c-IAP1 ΔBIR1 ([2]; first BIR deleted (residues 1-161), FIG. 7A) | auto-ubiquitylation activity of c-IAP1 ΔBIR1-2 ([2]; first two BIRs deleted (residues 1-265), FIG. 7A) | c-IAP1 auto-ubiquitylation in vitro [2] | binding to IAP proteins [3] | c-IAP1 auto-ubiquitylation in vitro [2, 4] | E3 activity of c-IAP1ΔBIR1 ([2]; peptides and controls, FIG. 7B) | binding to IAP proteins [3, 4]
1 | B1 | nearly non-detectable level | strongly promoted the ubiquitylation and degradation of c-IAP2 | significantly decreased | could no longer be enhanced | significantly enhanced | significantly enhanced | significantly enhanced c-IAP1 auto-ubiquitylation | bind |  |  | 
2 | B2 |  | did not promote the E3 activity |  |  |  |  | failed to promote such auto-ubiquitylation | failure to bind | did not promote the E3 activity | failed to activate c-IAP1 | did not bind IAP proteins
